Reference: the supplement of paper PMC11865577

Tested on: TO-3-N3-2 (biotin conjugate)
Experiment: pull-down binding Z-score (relative to library population); higher = stronger binding
Conditions: RNA library: Library-2
How it was run: (§1)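 The RNA library, end-labelled with Cy5 or Cy3, was heat-folded in phosphate/NaCl/KCl buffer, and 1 μg was incubated at 25 °C for 60 min with streptavidin beads carrying 100 pmol of biotin-conjugated small molecule. Hot SDS released the bound RNA, which was then hybridised to a DNA barcode microarray for 20 h at 55.5 °C. For scoring binding, signal from beads alone was subtracted, replicate barcoded probes were averaged after discarding the highest and lowest, and each value was turned into a Z-score from the library mean and standard deviation.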

First: GGAGCUCUGUGCCUUUGGGUCCUGGUGAGCUCU [hsa-mir-6070]
Second: GGAGCUGGCUGCUGGCCUCAGUUCU [hsa-mir-5001]
The “pull-down binding Z-score” value of the first is higher: -0.129 for the first, -0.449 for the second.

Going from GGAGGCACUGCCAGGGCUGCCCAC [hsa-mir-1202] to “GGAGGCAUGAAUGAGCCAUCUUUCCAAUGCCUUUC [hsa-mir-4743]”, the “pull-down binding Z-score” value falls from 0.277 to -0.332.

Going from “GGAGGCCCCGCCCUGCUGCCGACCCUGUGGAGCGGAGGGUGAAGCCUCC [hsa-mir-3180-5]” to “GGAGGCCCCGCUCUGCUGCCGACCCUGUGGAGCGGAGGGUGAAGCCUCC [hsa-mir-3180-4]”, the “pull-down binding Z-score” value rises from 0.0715 to 0.118.

First: GGAGGGUGAGCUUUCUGAAAACCCCUCC [hsa-mir-188]
Second: GGAGUCCUCUAGACACC [hsa-mir-6510]
The “pull-down binding Z-score” value of the first is higher: 0.358 for the first, -0.348 for the second.

First: GGAGUUGAUGCACAGUUAUCCAGCUCC [hsa-mir-337]
Second: GGAUAAGAAUCAGUCAC [hsa-mir-217]
The “pull-down binding Z-score” value of the first is lower: -0.326 for the first, 0.259 for the second.

Going from GGAUAGAAACUAUUAUUCUAUUC [hsa-mir-664a] to “GGAUCAUGUUUGCCCCCGUGGACAGCUCUCUGGUGUGCUCCUCCUGCCAUCCUGCCCACCCCUGCAUAAUGCUGCUUC [hsa-mir-6809]”, the “pull-down binding Z-score” value rises from -0.303 to 0.384.

Compared with GGAUCCCAGAUCAAACCAGGCCC [hsa-mir-331], GGAUGAAAGUCAAAGAAUCC [hsa-mir-1262] is higher in “pull-down binding Z-score” value: -0.114 for the first, 0.0666 for the second.

Compared with “GGAUGGCCAGGGAAGUAUGCCGGGCCUUGGCAUUUC [hsa-mir-7159]”, GGAUGGGAGACCUGACCCAUCC [hsa-mir-5195] is lower in “pull-down binding Z-score” value: 0.175 for the first, -0.208 for the second.

Compared with “GGAUGUGUUGACCCCUGAAGUGGUUCUGAUGACCUUUCC [hsa-mir-6883]”, GGAUUUGCUUCCUGUCACAAAUCA [hsa-mir-23a] is lower in “pull-down binding Z-score” value: -0.03 for the first, -0.241 for the second.

Compared with GGCACCUACGAUACCCAGUGCC [hsa-mir-3116-2], GGCACUGGGUAUCGUAGGUGCC [hsa-mir-3116-1] is higher in “pull-down binding Z-score” value: -0.0787 for the first, 0.127 for the second.

Compared with GGCAGAAAUGUC [hsa-mir-8053], “GGCAGGAGGCAGUGAAGUAACUUGC [hsa-mir-3934]” is higher in “pull-down binding Z-score” value: -0.375 for the first, 0.583 for the second.

Compared with “GGCAGGGGGAGCUGCAGGGCUAUGGGAGGGGCCCCAGCGUCUGA [hsa-mir-1233-2_1233-1]”, “GGCAGGGUCCUCCAGCUCAUUCCUCCUGCC [hsa-mir-6829]” is lower in “pull-down binding Z-score” value: 2.98 for the first, 0.56 for the second.

Compared with “GGCAGGUGCCUCCGUGUUGCCGAACCCUCCU [hsa-mir-6761]”, “GGCAGGUGUGGUUGGAGGAAGCAGCCUGAACCUGCC [hsa-mir-6778]” is higher in “pull-down binding Z-score” value: 0.116 for the first, 0.333 for the second.

Compared with GGCAGUGGUUCUAAAAGCUGUC [hsa-mir-3618], “GGCAUCAGAGGACAGCCGCCUGGUGCC [hsa-mir-4641]” is higher in “pull-down binding Z-score” value: -0.198 for the first, -0.0706 for the second.

Compared with GGCAUCCCCAUUGCU [hsa-mir-4304], “GGCAUCUAGCACAGGCGGUAGAUGCU [hsa-mir-4486]” is lower in “pull-down binding Z-score” value: -0.113 for the first, -0.34 for the second.

Compared with “GGCAUCUAGGCUGUGCACAGUGACGCC [hsa-mir-4749]”, GGCCACCCAGGGAGUAAGUAGCC [hsa-mir-4480] is higher in “pull-down binding Z-score” value: -0.421 for the first, 0.908 for the second.

First: GGCCAUCUGCUAUUCGUCCACCAACCUGACUUGAUCC [hsa-mir-7111]
Second: GGCCAUCUGGCC [hsa-mir-4252]
The “pull-down binding Z-score” value of the first is higher: 0.0293 for the first, -0.435 for the second.

First: GGCCCCAGGAAGAAGGGCCUGGUGGAGCC [hsa-mir-6743]
Second: GGCCGGUCAGGCA [hsa-mir-4689]
The “pull-down binding Z-score” value of the first is higher: 0.267 for the first, -0.106 for the second.

Tested on: TO-N3 (biotin conjugate)
Experiment: as above
Conditions: RNA library: Library-2
How it was run: as §1

Going from “GCUUCUGCUGCAUGAUCUCCGAGUCCCUGGGGGUAGAGAUGAUGGGGCACUGGGAGGU [hsa-mir-1282]” to “GCUUGCUGUACAUAACUCAAUAGCCGGAAGC [hsa-mir-129-2]”, the “pull-down binding Z-score” value falls from 0.59 to -0.0532.

First: GCUUGCUGUUCCUCUCAACAGUAGUCAGGAAGC [hsa-mir-129-1]
Second: GCUUGGAGCCUUGGUAGGGAAGCAAGCUGAGGAGAUAGGA [hsa-mir-7154]
The “pull-down binding Z-score” value of the first is lower: -0.219 for the first, 1.57 for the second.

Compared with GCUUUAUGUCCUGACCCAGCUAAAGC [hsa-mir-22], “GCUUUCUGUGGUCAGAAAGAAAAGCAAGU [hsa-mir-520f]” is higher in “pull-down binding Z-score” value: 0.112 for the first, 0.758 for the second.

First: GCUUUUCACCUGUGAUCCCAGGAGAGGAAGC [hsa-mir-646]
Second: GGAAACUGAGACUUUGUAACUAUGUCUCAGUCUCA [hsa-mir-452]
The “pull-down binding Z-score” value of the first is higher: -0.0302 for the first, -0.297 for the second.

Going from GGAAAGGGGAUGCAGAGCCCUGCC [hsa-mir-4647] to “GGAACACUAUAUUAAUCAGGUUUCC [hsa-mir-6509]”, the “pull-down binding Z-score” value falls from 1.44 to -0.631.

Compared with “GGAAGAAGGCUGAGGGAGAUGCCUUCUUCC [hsa-mir-6512]”, “GGAAGACACAUGAGCAGUGCCUCCACUUCACGCCUCUCCC [hsa-mir-6780b]” is higher in “pull-down binding Z-score” value: -0.155 for the first, 0.543 for the second.

First: GGAAGGGAGCCCCAUUUACAGUGGUAACUUCCUUUCC [hsa-mir-5006]
Second: GGAAGGGCGCCUGUGCUUCGUCC [hsa-mir-572]
The “pull-down binding Z-score” value of the first is higher: 1.3 for the first, 0.52 for the second.

First: GGAAUAGUGCUCCUGGUUGUUUC [hsa-mir-1180]
Second: GGAAUCCUACGUGAGGGACAAUCAUUCAGACCCACGUAGCAGUGUUCU [hsa-mir-1299]
The “pull-down binding Z-score” value of the first is lower: -0.303 for the first, 0.632 for the second.

Compared with GGACAGGGAUUCUUUUCACUGUU [hsa-mir-599], “GGACAUCCUUCCAUAGUAAAUAAGCGGUGCC [hsa-mir-8064]” is lower in “pull-down binding Z-score” value: 0.141 for the first, -0.0974 for the second.

Compared with “GGACCCUCUCUCUACCUCU [hsa-mir-4315-1_4315-2]”, GGACGUCACCACCAUGGCC [hsa-mir-650] is higher in “pull-down binding Z-score” value: -0.188 for the first, 0.232 for the second.

Going from GGACUCAGCCCUGUGCUGAGCCC [hsa-mir-5587] to GGACUUGCGGUUCA [hsa-mir-8057], the “pull-down binding Z-score” value falls from 0.532 to -0.0278.

Going from GGAGAAGACUUUUCCUUUCCUCC [hsa-mir-4660] to “GGAGACACUUUCACUAUAUAUAGUGGCUCC [hsa-mir-3156-2]”, the “pull-down binding Z-score” value falls from -0.139 to -1.34.

First: GGAGACACUUUUACUAUAUAUAGUGGCUCC [hsa-mir-3156-1]
Second: GGAGACCCUAUACAUACCUGUUUCC [hsa-mir-5581]
The “pull-down binding Z-score” value of the first is lower: -1.5 for the first, -0.37 for the second.

Compared with GGAGACGGGUCUUUCUC [hsa-mir-1208], GGAGAGGAUCCACCUGUCCUGUCC [hsa-mir-6165] is lower in “pull-down binding Z-score” value: 1.04 for the first, 0.374 for the second.

First: GGAGAGUAUGGUCACAGCAGCAUCCUCC [hsa-mir-6780a]
Second: GGAGAUCGUACC [hsa-mir-4430]
The “pull-down binding Z-score” value of the first is higher: -0.0981 for the first, -0.107 for the second.

Going from “GGAGAUUGGAGUGGCCAGUGUUCCUAAACAAUUC [hsa-mir-4263]” to “GGAGCAGACAGACCCAACCUCAUGCUCC [hsa-mir-6763]”, the “pull-down binding Z-score” value falls from 0.387 to 0.219.

Going from GGAGCCCGAGCAGCCGCGGUGAA [hsa-mir-7706] to “GGAGCCUUCCCCAGAGGAGUCAGGCC [hsa-mir-4312]”, the “pull-down binding Z-score” value falls from 2.17 to 0.698.

Compared with “GGAGCUCAGCACCUGCCUGCCACCCACGCAGACCAGCCCCUGCUCUGUUCCCACAG [hsa-mir-4648]”, “GGAGCUCUGUCCUGUCUCACUCAUUGCUCC [hsa-mir-6749]” is lower in “pull-down binding Z-score” value: 1.56 for the first, -0.473 for the second.

Going from “GGAGCUCUGUGCCUUUGGGUCCUGGUGAGCUCU [hsa-mir-6070]” to “GGAGCUGGCUGCUGGCCUCAGUUCU [hsa-mir-5001]”, the “pull-down binding Z-score” value falls from 0.413 to 0.0865.

Going from GGAGGCACUGCCAGGGCUGCCCAC [hsa-mir-1202] to “GGAGGCAUGAAUGAGCCAUCUUUCCAAUGCCUUUC [hsa-mir-4743]”, the “pull-down binding Z-score” value falls from 1.21 to -0.118.

Going from “GGAGGCCCCGCCCUGCUGCCGACCCUGUGGAGCGGAGGGUGAAGCCUCC [hsa-mir-3180-5]” to “GGAGGCCCCGCUCUGCUGCCGACCCUGUGGAGCGGAGGGUGAAGCCUCC [hsa-mir-3180-4]”, the “pull-down binding Z-score” value falls from 1.1 to 0.553.

Going from “GGAGGGUGAGCUUUCUGAAAACCCCUCC [hsa-mir-188]” to GGAGUCCUCUAGACACC [hsa-mir-6510], the “pull-down binding Z-score” value rises from 0.328 to 0.373.

Compared with “GGAGUUGAUGCACAGUUAUCCAGCUCC [hsa-mir-337]”, GGAUAAGAAUCAGUCAC [hsa-mir-217] is higher in “pull-down binding Z-score” value: -0.495 for the first, -0.415 for the second.

First: GGAUAGAAACUAUUAUUCUAUUC [hsa-mir-664a]
Second: GGAUCAUGUUUGCCCCCGUGGACAGCUCUCUGGUGUGCUCCUCCUGCCAUCCUGCCCACCCCUGCAUAAUGCUGCUUC [hsa-mir-6809]
The “pull-down binding Z-score” value of the first is lower: -0.784 for the first, 1.02 for the second.

Compared with GGAUCCCAGAUCAAACCAGGCCC [hsa-mir-331], GGAUGAAAGUCAAAGAAUCC [hsa-mir-1262] is higher in “pull-down binding Z-score” value: -0.177 for the first, 1.17 for the second.

First: GGAUGGCCAGGGAAGUAUGCCGGGCCUUGGCAUUUC [hsa-mir-7159]
Second: GGAUGGGAGACCUGACCCAUCC [hsa-mir-5195]
The “pull-down binding Z-score” value of the first is higher: 0.814 for the first, -0.0467 for the second.

Compared with “GGAUGUGUUGACCCCUGAAGUGGUUCUGAUGACCUUUCC [hsa-mir-6883]”, GGAUUUGCUUCCUGUCACAAAUCA [hsa-mir-23a] is lower in “pull-down binding Z-score” value: 0.387 for the first, 0.271 for the second.
